Measured values from patent US11827690B2, “ApoC-II mimetic peptides” (THE UNITED STATES OF AMERICA, as represented by the …, priority 2017, dated 2023).
Non-standard residues stand in square brackets, D forms with d. No end group written: not given here. Nle = CCCC[C@H](N)C(=O)O

Key:
bovine LPL [1] = target: T1, bovine LPL (Bos taurus, UniProt P11151); assay: in vitro LPL assay using apoC-II deficient patient sera as substrate; type: biochemical
T1 sequence (P11151 29-478): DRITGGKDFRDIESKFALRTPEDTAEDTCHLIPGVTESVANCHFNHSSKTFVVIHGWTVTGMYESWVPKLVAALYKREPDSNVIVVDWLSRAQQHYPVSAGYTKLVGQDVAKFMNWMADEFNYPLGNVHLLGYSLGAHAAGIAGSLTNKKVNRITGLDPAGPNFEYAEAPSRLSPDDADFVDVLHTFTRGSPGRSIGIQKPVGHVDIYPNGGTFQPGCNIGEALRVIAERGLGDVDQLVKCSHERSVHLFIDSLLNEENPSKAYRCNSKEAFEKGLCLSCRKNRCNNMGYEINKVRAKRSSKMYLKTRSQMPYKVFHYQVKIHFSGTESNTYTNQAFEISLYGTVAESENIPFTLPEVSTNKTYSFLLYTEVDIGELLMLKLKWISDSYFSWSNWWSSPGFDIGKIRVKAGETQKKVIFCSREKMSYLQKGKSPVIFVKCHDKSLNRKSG
Experimental: (§1) Preparation of LPL: frozen stock of 10 μL of 0.5 mg/mL bovine LPL was used and diluted 1:100 (10 μL+990 μL of PBS).
Preparation of 20% Intralipid: 2000 mg/dL TG Intralipid was used to prepare 3 mg/dL TG Intralipid by diluting 1.5 μL of the stock with 998.5 μL PBS, or by diluting the stock 1:10 first and then mixing 15 μL of the diluted stock with 985 μL PBS. When apoC-II deficient human serum was used as a substrate, a frozen 10 μL aliquot of 1711 mg/dL (TG) was diluted by adding 990 μL PBS (1:100 dilution).
(§2) Preparation of free fatty acid (NEFA) assay: NEFA reagents were purchased from Wako Diagnostics, Wako Life Sciences, Inc. Reagent A was prepared by mixing Coloring Reagent A with Solvent A (225 μL per well). Reagent B was prepared by mixing Coloring Reagent B with Solvent B (75 μL per well). 5 nmoL oleic acid standard was prepared by diluting 20 μL of 1 mM oleic acid stock (WAKO NEFA standard solution) with 180 μL of 0.2% BSA.
(§3) LPL activity assay: 10 μL of Intralipid, human plasma sample, or mouse plasma sample was added in each well using repeater pipette. 10 μL (or 15 μL in the wells with no LPL control) of PBS and 10 μL of 1% BSA was added in each well using repeater pipette. 10 μL of peptides were added to corresponding wells in vertical triplicates (lowest concentration is on a left, highest is on the right). The plate was spun down at 1000 RPM for 10 seconds to mix and to remove the solutions from the wall of each well. The plate was put on ice and 5 μL of LPL was added using repeater pipette. The plate was spun down again at 1000 RPM for 10 seconds. The plate was covered and put back on ice for an incubation of 30 min. The plate was then moved to 37° C. and incubated for 1 hour.
(§4) Free fatty acids (NEFA) assay: 45 μL of 5 nmoL standard and 0 nmoL control (0.2% BSA) were added to corresponding wells. 225 μL of reagent A was added in each well using the reagent tray and 12-channel pipette. The plate was incubated for 10 min before 75 μL of reagent B was added to each well using the reagent tray and 12-channel pipette. The plate was not covered due to the high volume. The absorbance at 550 nm and 660 nm was measured.

bovine LPL [2] = target: T1, bovine LPL; assay: in vitro LPL assay using hypertriglyceridemia patient sera as substrate; type: biochemical
Experimental: as §1, §2, §3, §4

[3] = tested on: VLDL isolated from human plasma; assay: ApoC-III displacement study in VLDL isolated from human plasma; type: binding
Experimental: VLDL or chylomicrons isolated from human plasma were incubated with an apoC-II mimetic peptide for 1 hour at 37° C. and washed 3 times with PBS using spin filter with 100 kDa cutoff membrane. […] ApoC-I, apoC-II, apoC-III, and apoE bands were identified by their corresponding size.

[4] = tested on: chylomicrons isolated from human plasma; assay: ApoC-III displacement study in chylomicrons isolated from human plasma; type: binding
Experimental: VLDL or chylomicrons isolated from human plasma were incubated with an apoC-II mimetic peptide for 1 hour at 37° C. and washed 3 times with PBS using spin filter with 100 kDa cutoff membrane. Supernatants were brought to the original volume with PBS and loaded to 4-12% Bis-TRIS SDS PAGE gel. ApoC-I, apoC-II, apoC-III, and apoE bands were identified by their corresponding size.

[5] = target: T2, LPL inhibited by apoC-III (Bos taurus, UniProt P11151); assay: LPL assay using human apoC-II deficient plasma as substrate with recombinant apoC-III; type: biochemical; conditions: 25 μM apoC-III, FIG. 50
T2 sequence (P11151 29-478): T1 sequence (P11151 29-478)
Experimental: as §3, §4
LPL assay was performed using Intralipid, high TG human plasma (1:50 dilution), or apoC-III transgenic mouse plasma (1:50 dilution). When Intralipid was used as a substrate, 25 or 50 μM recombinant ApoC-III was added as an inhibitor. When the high TG human plasma was used as a substrate, 25 or 50 μM recombinant ApoC-III was added as an inhibitor with or without pre-incubation at 37° C. for 1 hour. An apoC-II mimetic peptide was added at various concentrations.

apoC-II knockout mice = assay: plasma lipids of apoC-II knockout mice after peptide injection; type: in vivo
Experimental: C57Bl/6 mice (wild-type), apoC-II knockout (apoC-II KO) mice, and apoC-III transgenic mice were used for in vivo study. The C57Bl/6 mice (wild-type) were purchased from Taconic Biosciences Inc. The apoC-II KO mice were created as described in Sakurai et al., J Pharmacol Exp Ther 356:341-353, 2016. The apoC-III transgenic mice were generated by overexpressing human apoC-III in C57Bl/6 mice. See Qu et al., J. Lipid Res. 48:1476-1487, 2007.
Mice were fasted overnight (approximately 12 hours) before the study and 6 hours during the study, the next day. The apoC-II mimetic peptides were synthetically produced and free of biological contamination (not available as FDA approved compounds/treatment). […] W.) administered either subcutaneous injection (S.Q. or S.C.), intraperitoneal injection (I.P.) or intravenous injection (I.V.) (in a sterile, pharmaceutical grade PBS solution at a volume ≤200 μL) as described in Sakurai et al., J Pharmacol Exp Ther 356:341-353, 2016.

For “DYLKEVFEKLRDLYEKFTAAnLSTYTGIFTDQVLSVLKGEE (DYLKEVFEKLRDLYEKFTAA[Nle]STYTGIFTDQVLSVLKGEE) [Delta6]”, the “LPL activation compared with full length apoC-II protein” value (bovine LPL [1]; 10 pM to 10 μM, FIG. 51) was “activated LPL in vitro more efficiently than the full length apoC-II protein”, the “promoting TG hydrolysis in the presence of LPL” value (bovine LPL [1]; FIG. 6) was “capable of promoting TG hydrolysis in the presence of LPL” and the “efficiency compared with native apoC-II protein” value (bovine LPL [1]; at lower concentrations, FIG. 6) was “worked more efficiently than the native apoC-II protein”. For the same substance, the TG hydrolysis (bovine LPL [1]; concentrations from 100 pM to 10 nM, FIG. 14) was “exhibited the ability to promote TG hydrolysis in a dose dependent matter”, the LPL activation (bovine LPL [2]; patient sera TG about 1000 mg/dL to about 1700 mg/dL, FIGS. 15A-D) was “activated LPL in vitro” and the LPL activity (bovine LPL [2]; sera of patients with high levels of apoC-III protein, FIG. 27) was “increased the LPL activity”. The “affinity for the VLDL compared with the apolipoproteins” value [3] was “higher affinity”, the “apoC-III displacement in VLDL” value ([3]; SDS PAGE) was “capable of displacing apoC-III” and the “affinity for chylomicrons compared with the apolipoproteins” value [4] was “higher affinity”. The “effect on inhibition of LPL by apoC-III” value [5] was “overcame the inhibitory effect of apoC-III and facilitated lipolysis”, the “plasma TG” value (apoC-II knockout mice; 0.25, 0.5, and 1 μmol/kg of body weight intraperitoneally, all doses, FIG. 23) was “rapid and marked reduction of plasma TG” and the “plasma TG” value (apoC-II knockout mice; intraperitoneal injection) was “rapid and marked reduction of plasma TG”. The total cholesterol level (apoC-II knockout mice; intraperitoneal injection) was “decrease in the total cholesterol level”.
